± gives the standard deviation of the averaged measurements.
B1: library; a variant is named by its letters at N, in order (parent)
chain: GCUGUCACCGGUGCUUGGUACGUUAUAUUCAGCCGGUCUGAUGAGUCUNNNNNNAGACGAAACAGC

Columns and labels:
[1] = variants of: B1; assay: normalized RNA/DNA level without ligand (relative to sTRSVctl = 100) (log10 (% of sTRSVctl)); HEK293T overexpressing SLC46A1; higher = less ribozyme self-cleavage, higher mRNA level; settings: without (6R,S)-folinic acid; ligand present: no
How it was run: (§1)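 Library plasmids carrying ribozyme switches linked to mCherry, or to eGFP in some ligand experiments, were transfected into HEK293T at 4 µg per 6-well well, with any ligand added 1 h earlier. Seventy-two hours on, total RNA was extracted with EDTA and reverse-transcribed, amplified, barcoded and sequenced. RNA level was RNA over DNA reads normalized to a spiked-in non-cleaving sequence or to the top sequences, then scaled and log-transformed. The top set was 25 sequences, the transform was ×100 and log10, and sequences needed ≥100 DNA reads.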

[2] = variants of: B1; assay: normalized RNA/DNA level with ligand (relative to sTRSVctl = 100) (log10 (% of sTRSVctl)); HEK293T overexpressing SLC46A1; ligand concentration (+) RNA-Seq: 6 mM; higher = less ribozyme self-cleavage, higher mRNA level; settings: with (6R,S)-folinic acid; ligand present: yes
How it was run: as §1

Row | Variant | normalized RNA/DNA level without ligand (log10) [1] | normalized RNA/DNA level with ligand (log10) [2]
1 | GUUAAC | 1.976 ± 0.0067 | 2.024 ± 0.015
2 | GUUAAU | 1.9687 ± 4.4e-05 | 2.04 ± 0.026
3 | GUUAAA | 1.991 ± 0.011 | 2 ± 0.039
4 | GUUAAG | 1.96 ± 0.006 | 2.02 ± 0.027
5 | GUUAGU | 1.979 ± 0.0095 | 2.03 ± 0.044
6 | GUUAGC | 1.92 ± 0.025 | 1.99 ± 0.02
7 | GUUAGA | 2 ± 0.02 | 2.021 ± 0.0089
8 | GUUUUG | 2.007 ± 0.0091 | 2.02 ± 0.049
9 | GUUUUU | 2.015 ± 0.0093 | 2 ± 0.02
10 | CUGUUG | 2.04 ± 0.035 | 2.03 ± 0.027
11 | CUGUUA | 1.994 ± 0.0099 | 2.04 ± 0.03
12 | CUGUUU | 2.022 ± 0.0036 | 2.06 ± 0.041
13 | CUGUUC | 2.049 ± 0.016 | 2.03 ± 0.024
14 | AUUUGC | 2 ± 0.02 | 1.99 ± 0.026
15 | AUUUGA | 1.965 ± 0.0074 | 2 ± 0.053
16 | AUUUGU | 1.945 ± 0.002 | 2.02 ± 0.042
17 | GUUGGG | 1.912 ± 0.013 | 2.042 ± 0.017
18 | GUUGGC | 1.914 ± 0.019 | 2.02 ± 0.036
19 | UUUCUC | 2.118 ± 0.0058 | 2.062 ± 0.014
20 | UUUCUA | 2.019 ± 0.011 | 2.042 ± 0.0037

Row | Variant | normalized RNA/DNA level without ligand (log10) [1] | normalized RNA/DNA level with ligand (log10) [2]
21 | UUUCUU | 2.043 ± 0.0064 | 2.02 ± 0.021
22 | CUUCUA | 2.0515 ± 0.00054 | 2.083 ± 0.015
23 | CUUCUU | 2.016 ± 0.0066 | 1.97 ± 0.025
24 | CUUCUG | 2.06 ± 0.021 | 2.026 ± 0.0091
25 | CUUCUC | 2.05 ± 0.0097 | 2.02 ± 0.056
26 | CUUAGA | 2.03 ± 0.01 | 2.04 ± 0.029
27 | CUUAGC | 2.008 ± 0.019 | 2.01 ± 0.08
28 | CUUAGU | 2.01 ± 0.0085 | 2.014 ± 0.0092
29 | CUUAGG | 2.041 ± 0.018 | 2.052 ± 0.014
30 | GUUUAC | 2.02 ± 0.028 | 2.016 ± 0.002
31 | GUUUAU | 1.99 ± 0.02 | 1.99 ± 0.031
32 | GUUUAA | 1.989 ± 0.0071 | 1.99 ± 0.025
33 | UUUUUA | 2.002 ± 0.0053 | 2.007 ± 0.014
34 | UUUUUU | 2.017 ± 0.014 | 2.03 ± 0.032
35 | UUUUUC | 2.05 ± 0.026 | 2.01 ± 0.026
36 | CUUCAU | 2 ± 0.0049 | 1.99 ± 0.037
37 | CUUCAC | 2.027 ± 0.0051 | 1.988 ± 0.011
38 | CUUCAG | 2.027 ± 0.015 | 2.099 ± 0.011
39 | CUUCAA | 2.023 ± 0.0088 | 2.05 ± 0.042
40 | UUUGUC | 2.069 ± 0.018 | 2.034 ± 0.02

Row | Variant | normalized RNA/DNA level without ligand (log10) [1] | normalized RNA/DNA level with ligand (log10) [2]
41 | UUUGUG | 1.73 ± 0.051 | 1.95 ± 0.046
42 | UUUGUU | 1.944 ± 0.0033 | 1.99 ± 0.032
43 | UUUGUA | 1.959 ± 0.0085 | 2.007 ± 0.014
44 | AUUUUU | 1.989 ± 0.017 | 2.01 ± 0.029
45 | GUUGCA | 2 ± 0.011 | 2.01 ± 0.038
46 | GUUGCC | 2.0274 ± 0.0015 | 1.998 ± 0.018
47 | UUGUGU | 2.03 ± 0.011 | 2.05 ± 0.031
48 | CUUUGC | 2.047 ± 0.017 | 2.027 ± 0.016
49 | CUUUGG | 2.023 ± 0.0097 | 1.994 ± 0.013
50 | CUUUGU | 1.986 ± 0.008 | 1.99 ± 0.022
51 | CUUUGA | 2.024 ± 0.004 | 2.05 ± 0.036
52 | GUUGAU | 1.97 ± 0.021 | 2.003 ± 0.019
53 | GUUUCA | 2.03 ± 0.034 | 1.99 ± 0.04
54 | GUUUCU | 1.965 ± 0.012 | 1.97 ± 0.068
55 | GUUUCC | 2.021 ± 0.015 | 2 ± 0.068
56 | GUUUCG | 1.99 ± 0.027 | 1.99 ± 0.039
57 | CUUAAG | 1.913 ± 0.0089 | 1.986 ± 0.0033
58 | CUUAAU | 1.989 ± 0.0044 | 2.001 ± 0.011
59 | CUUAAA | 1.9796 ± 8.1e-05 | 1.968 ± 0.017

Reference: the supplement of paper PMC6757056
